According to paper PMC3847722 (Toxins, 2013):

Target: T1, botulinum neurotoxin serotype B (Clostridium botulinum., UniProt P10844)
T1 construct: source: bought: Metabiologics Inc
Assay: BLI; […], dissociation in PBS 1800 s; 1:1 model, […]
Conditions: both partners purified

B1: MCS6-27 (antibody, V domains shown)
VH: EVQLEQSGPGLVKPSQSLSLTCTVTGYSITNDYAWNWIRQFPGNKLEWMGYINYSGTTSYNPSLKSRISITRDTSKNQFFLQFNSVTTEDTATYYCARSPLAYWGQGTLVTVSA
VL: DIVLTQTPASLSVSVGETVTITCRASENIYSHLAWYQQKQGKSPQLLVYTATNLADGVPSRFSGRGSGTQYSLKINSLQSEDFGIYFCQHFWGTPWTFGGGTKLEIK
notes: also called mAb MCS6-27; mAb6-27
  Kd: 0.086 nM
